Article doi:10.1101/2025.11.13.688252, “Cap1 forms a cyclic tetra-adenylate-induced membrane pore during the type III-A CRISPR-Cas immune response” (bioRxiv, 2025)

How the values were obtained:
[1] = biological target: T1, Cap1 (CRISPR-associated pore 1) (Parafilimonas terrae, UniProt A0A1I5TJE5, Q118A); assay: ITC with purified CARFL Q118A domain; type: binding
T1 construct: gene SAMN05444277_102160; CARFL domain (residues 85–220), His6-tagged

[2] = biological target: T2, Cap1 (CRISPR-associated pore 1) (Parafilimonas terrae, UniProt A0A1I5TJE5); assay: ITC with purified CARFL domain; cryo-EM structure of cA4-bound full-length tetramer ([…] Å); type: binding
T2 construct: gene SAMN05444277_102160; ITC: CARFL domain (residues 85–220), His6-tagged; cryo-EM: full-length Cap1-His6 in GDN, homotetramer
T2 sequence (A0A1I5TJE5 85-220): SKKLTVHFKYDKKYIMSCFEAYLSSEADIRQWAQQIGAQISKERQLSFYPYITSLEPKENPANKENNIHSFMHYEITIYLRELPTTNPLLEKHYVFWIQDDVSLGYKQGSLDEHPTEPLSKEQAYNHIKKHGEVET

[3] = biological target: Cap1 (CRISPR-associated pore 1), full-length, C-terminal His6 tag (Parafilimonas terrae); assay: SEC-MALS; conjugate SEC-MALS (protein conjugate method) of apo-Cap1 without cOA ligand; Superdex200 10/300 increase; 25 mM Hepes pH 8, 200 mM NaCl, 2 mM β-mercaptoethanol, 5 % glycerol, 375 μM GDN
[4] = biological target: Cap1 (CRISPR-associated pore 1), full-length, C-terminal His6 tag (Parafilimonas terrae); assay: cryo-EM structure; Cap1 in GDN, 150 μM (as monomer) with 800 μM cA4, 30 min on ice; two classes: 2.9 Å (C4; DUF4579 not visible) and 3.6 Å (C4; DUF4579 visible, TM1 not resolved)
[5] = biological target: Cap1 (CRISPR-associated pore 1), full-length, C-terminal His6 tag (Parafilimonas terrae); assay: cryo-EM structure; apo-Cap1 in GDN, 200 μM protein, 0.5 mM FOM detergent added for grids; map at 3.4 Å, C1 symmetry

stoichiometry N [3] | stoichiometry N [4] | stoichiometry N [5] | Compound | Kd [1] | Kd [2]
– | – | – | Nc1ncnc2c1ncn2[C@@H]1O[C@@H]2COP(=O)(O)O[C@H]3[C@@H](O)[C@H](n4cnc5c(N)ncnc54)O[C@@H]3COP(=O)(O)O[C@H]3[C@@H](O)[C@H](n4cnc5c(N)ncnc54)O[C@@H]3COP(=O)(O)O[C@H]3[C@@H](O)[C@H](n4cnc5c(N)ncnc54)O[C@@H]3COP(=O)(O)O[C@H]2[C@H]1O [cA4, cyclic tetra-adenylate] | ~1200 nM | ~33 nM
4 | 4 | 4 | Cap1 (CRISPR-associated pore 1), full-length, C-terminal His6 tag (natural protein) | – | –
